Measurements as given in US20050223428A1 (published 2005).

Biological target: T1, ERCAT-MBP (ERECTA kinase domain fused to maltose binding protein, kinase-active) (Arabidopsis, UniProt Q42371 611-976)
T1 construct: Expressed in E. coli from pMAL-c2 and purified on amylose resin; dot-blotted on nitrocellulose
T1 sequence: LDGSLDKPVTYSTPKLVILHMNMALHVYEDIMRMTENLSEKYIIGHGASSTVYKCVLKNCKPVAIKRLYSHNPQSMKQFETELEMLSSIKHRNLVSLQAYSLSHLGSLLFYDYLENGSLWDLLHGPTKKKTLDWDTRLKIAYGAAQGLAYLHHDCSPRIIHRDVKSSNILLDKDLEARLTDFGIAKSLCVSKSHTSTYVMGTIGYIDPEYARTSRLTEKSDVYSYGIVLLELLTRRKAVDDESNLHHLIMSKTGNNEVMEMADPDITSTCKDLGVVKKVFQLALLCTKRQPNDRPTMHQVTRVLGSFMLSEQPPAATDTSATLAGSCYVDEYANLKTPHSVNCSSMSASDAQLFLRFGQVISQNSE
Assay: far-western dot blot with 32P-labelled GST-KID
From the text: Far-Western Analysis of the ERECTA-KAPP Interaction: For protein-protein interaction (far-western) blot analysis, the kinase domains of ERECTA and RLK5 were expressed as MBP fusions. The ERECTA kinase domain (corresponding to amino acids 611 to 977) was amplified from cDNA using the primers ERK4 (5′ […] 3′, SEQ ID NO:34) and ER3rc (5′ […] 3′, SEQ ID NO:35). The amplified fragment was digested with EcoRI and BamHI and introduced into pSP73-delta-AatII to generate pKUT503. […] The first round of PCR was performed with the primer pairs ERK4 and ERK13/K676E (5′ […] 3′, SEQ ID NO:36) and ERKI5/K676E (5′ […] 3′, SEQ ID NO:37) and ERCodeC3 (5′ […] 3′, SEQ ID NO:38). In the next round, products from both reactions were mixed and amplified with ERK4 and ERCodeC3. The amplified fragment was digested with EcoRI and BamHI and introduced into the plasmid pSP73-delta-AatII to generate pKUT536. The EcoRI-SalI fragments of both pKUT503 and pKUT536 were cloned into pMAL-c2 (New England Biolabs). The plasmids RLK5CAT-MBP, RLK5CAT(K711E)MBP, and GST-KID 134 were generous gifts from John Walker (University of Missouri, Columbia). […] Protein concentrations were determined with Bio-Rad Protein Assay Solution. […]

B1: GST-KID (kinase interaction domain of Kinase-Associated Protein Phosphatase, KAPP, fused to glutathione S-transferase) (other, UniProt P46014 180-313, looked up)
chain: SWLFLEVIAGPAIGLQHAVNSTSSSKLPVKLGRVSPSDLALKDSEVSGKHAQITWNSTKFKWELVDMGSLNGTLVNSHSISHPDLGSRKWGNPVELASDDIITLGTTTKVYVRISSQNEFQIPFKIGVASDPMA
modifications: labeled with 32P
notes: Plasmid was a gift (John Walker); expressed in E. coli, purified on glutathione-Sepharose, 32P-labelled and used as the probe in the far-western dot blot; also called KAPP KID; radiolabeled KID protein; not shown: glutathione S-transferase (GST) fusion partner
  binding result: no binding (tested: One milligram blotted)
